# Test results reported in the Human Domainome abundance scans (Beltran et al. 2025).
# ± gives the uncertainty stated by the source.
# B1: Formin-binding protein 4, residues 593 to 636; numbered along this chain, Q8N3X1 (parent)
# chain: EINATPKGWSCHWDRDHRRYFYVNEQSGESQWEFPDGEEEEEES
# Variants of: B1
# Assay: abundance fitness (aPCA) (normalised: wild type 0, dead -1); higher = more abundant; growth selection in yeast, the domain comes from the species named
# Conditions: Homo sapiens
row,Variant,abundance fitness
1,EINATPKGWSCHWDRDHRRYFYVNEQSGESQWEFPDGEEENEES,-0.109 ± 0.083
2,EINATPKGWSCHWDRDHRRYFYVNEQSGESQWEFPDGEEECEES,0.016 ± 0.084
3,EINATPKGWSCHWDRDHRRYFYVNEQSGESQWEFPDGEEEYEES,-0.502 ± 0.19
4,EINATPKGWSCHWDRDHRRYFYVNEQSGESQWEFPDGEEEDEES,-0.28 ± 0.13
5,EINATPKGWSCHWDRDHRRYFYVNEQSGESQWEFPDGEEEREES,0.007 ± 0.059
6,EINATPKGWSCHWDRDHRRYFYVNEQSGESQWEFPDGEEEFEES,-0.079 ± 0.11
7,EINATPKGWSCHWDRDHRRYFYVNEQSGESQWEFPDGEEEKEES,-0.048 ± 0.11
8,EINATPKGWSCHWDRDHRRYFYVNEQSGESQWEFPDGEEEGEES,0.041 ± 0.059
9,EINATPKGWSCHWDRDHRRYFYVNEQSGESQWEFPDGEEELEES,-0.1 ± 0.073
10,EINATPKGWSCHWDRDHRRYFYVNEQSGESQWEFPDGEEEMEES,-0.064 ± 0.11
11,EINATPKGWSCHWDRDHRRYFYVNEQSGESQWEFPDGEEEPEES,0.031 ± 0.078
12,EINATPKGWSCHWDRDHRRYFYVNEQSGESQWEFPDGEEEAEES,0.012 ± 0.063
13,EINATPKGWSCHWDRDHRRYFYVNEQSGESQWEFPDGEEETEES,-0.011 ± 0.065
14,EINATPKGWSCHWDRDHRRYFYVNEQSGESQWEFPDGEEESEES,-0.139 ± 0.092
15,EINATPKGWSCHWDRDHRRYFYVNEQSGESQWEFPDGEEEVEES,0.042 ± 0.065
16,EINATPKGWSCHWDRDHRRYFYVNEQSGESQWEFPDGEEEQEES,0.056 ± 0.091
17,EINATPKGWSCHWDRDHRRYFYVNEQSGESQWEFPDGEEEEERS,-0.056 ± 0.077
18,EINATPKGWSCHWDRDHRRYFYVNEQSGESQWEFPDGEEEEETS,0.008 ± 0.089
19,EINATPKGWSCHWDRDHRRYFYVNEQSGESQWEFPDGEEEEESS,0.041 ± 0.078
20,EINATPKGWSCHWDRDHRRYFYVNEQSGESQWEFPDGEEEEEQS,-0.433 ± 0.3
21,EINATPKGWSCHWDRDHRRYFYVNEQSGESQWEFPDGEEEEEWS,-0.197 ± 0.093
22,EINATPKGWSCHWDRDHRRYFYVNEQSGESQWEFPDGEEEEEDS,-0.02 ± 0.13
23,EINATPKGWSCHWDRDHRRYFYVNEQSGESQWEFPDGEEEEEPS,0.044 ± 0.083
24,EINATPKGWSCHWDRDHRRYFYVNEQSGESQWEFPDGEEEEEKS,0.021 ± 0.092
25,EINATPKGWSCHWDRDHRRYFYVNEQSGESQWEFPDGEEEEEAS,0.068 ± 0.07
26,EINATPKGWSCHWDRDHRRYFYVNEQSGESQWEFPDGEEEEENS,-0.08 ± 0.15
27,EINATPKGWSCHWDRDHRRYFYVNEQSGESQWEFPDGEEEEEFS,0.248 ± 0.3
28,EINATPKGWSCHWDRDHRRYFYVNEQSGESQWEFPDGEEEEEVS,0.046 ± 0.079

row,Variant,abundance fitness
1,EINATPKGWSCHWDRDHRRYFYVNEQSGESQWEFPDGEEEEELS,-0.086 ± 0.093
2,EINATPKGWSCHWDRDHRRYFYVNEQSGESQWEFPDGEEEEEGS,0.021 ± 0.082
3,EINATPKGWSCHWDRDHRRYFYVNEQSGESQWEFPDGEEEEEMS,-0.148 ± 0.11
4,EINATPKGWSCHWDRDHRRYFYVNEQSGESQWEFPDGEEEEYES,-0.152 ± 0.14
5,EINATPKGWSCHWDRDHRRYFYVNEQSGESQWEFPDGEEEEGES,0.122 ± 0.061
6,EINATPKGWSCHWDRDHRRYFYVNEQSGESQWEFPDGEEEESES,0.032 ± 0.073
7,EINATPKGWSCHWDRDHRRYFYVNEQSGESQWEFPDGEEEECES,-0.023 ± 0.064
8,EINATPKGWSCHWDRDHRRYFYVNEQSGESQWEFPDGEEEEPES,0.004 ± 0.064
9,EINATPKGWSCHWDRDHRRYFYVNEQSGESQWEFPDGEEEEFES,-0.368 ± 0.16
10,EINATPKGWSCHWDRDHRRYFYVNEQSGESQWEFPDGEEEEKES,0.022 ± 0.11
11,EINATPKGWSCHWDRDHRRYFYVNEQSGESQWEFPDGEEEEHES,-0.009 ± 0.1
12,EINATPKGWSCHWDRDHRRYFYVNEQSGESQWEFPDGEEEEMES,0.038 ± 0.11
13,EINATPKGWSCHWDRDHRRYFYVNEQSGESQWEFPDGEEEEVES,-0.005 ± 0.07
14,EINATPKGWSCHWDRDHRRYFYVNEQSGESQWEFPDGEEEEAES,0.04 ± 0.061
15,EINATPKGWSCHWDRDHRRYFYVNEQSGESQWEFPDGEEEELES,-0.073 ± 0.069
16,EINATPKGWSCHWDRDHRRYFYVNEQSGESQWEFPDGEEEEDES,0.038 ± 0.084
17,EINATPKGWSCHWDRDHRRYFYVNEQSGESQWEFPDGEEEERES,0.01 ± 0.057
18,EINATPKGWSCHWDRDHRRYFYVNEQSGESQWEFPDGEEEETES,0.026 ± 0.073
19,EINATPKGWSCHWDRDHRRYFYVNEQSGESQWEFPDGEEEEIES,-0.409 ± 0.12
20,EINATPKGWSCHWDRDHRRYFYVNEQSGESQWEFPDGEEEEWES,-0.283 ± 0.087
21,EINATPKGWSCHWDRDHRRYFYVNEQSGESQWEFPDGEEVEEES,0.056 ± 0.061
22,EINATPKGWSCHWDRDHRRYFYVNEQSGESQWEFPDGEENEEES,-0.057 ± 0.11
23,EINATPKGWSCHWDRDHRRYFYVNEQSGESQWEFPDGEEYEEES,0.114 ± 0.22
24,EINATPKGWSCHWDRDHRRYFYVNEQSGESQWEFPDGEEAEEES,0.038 ± 0.067
25,EINATPKGWSCHWDRDHRRYFYVNEQSGESQWEFPDGEEMEEES,-0.127 ± 0.084
26,EINATPKGWSCHWDRDHRRYFYVNEQSGESQWEFPDGEEDEEES,-0.158 ± 0.13
27,EINATPKGWSCHWDRDHRRYFYVNEQSGESQWEFPDGEELEEES,0.008 ± 0.061
